Laboratory results published in patent US20160272683A1 (Novo Nordisk, published 2016).
Numbered stars: 1 amine (or outer) side, 2 acyl side, 3 side chain; on linkers, the order of the positions; unused ones are H or OH. Ends that are not written are not given here. * marks the point of attachment. C20 diacid = O=C(O)CCCCCCCCCCCCCCCCCCC(=O)*; C18 diacid = O=C(O)CCCCCCCCCCCCCCCCC(=O)*; γGlu = O=C(O)[C@H](CCC(=O)[*:2])N[*:1]; AEEA = NCCOCCOCC(=O)O

T1: human calcitonin receptor (human, UniProt P30988 25-474)
T1 construct: whole, on cells; also called hCT-R; hCTR
T1 sequence (looked up): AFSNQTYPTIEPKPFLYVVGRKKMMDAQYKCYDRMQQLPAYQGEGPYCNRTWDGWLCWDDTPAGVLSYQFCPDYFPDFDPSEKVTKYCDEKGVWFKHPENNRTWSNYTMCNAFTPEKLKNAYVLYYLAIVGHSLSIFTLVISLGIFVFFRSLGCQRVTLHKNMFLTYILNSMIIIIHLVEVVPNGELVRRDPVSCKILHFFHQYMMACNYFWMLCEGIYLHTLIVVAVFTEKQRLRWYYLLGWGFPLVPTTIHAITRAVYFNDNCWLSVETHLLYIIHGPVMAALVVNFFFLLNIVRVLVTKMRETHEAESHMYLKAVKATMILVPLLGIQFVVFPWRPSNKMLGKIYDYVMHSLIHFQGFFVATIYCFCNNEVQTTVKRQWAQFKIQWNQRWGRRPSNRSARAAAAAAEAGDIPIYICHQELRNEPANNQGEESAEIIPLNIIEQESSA

B1: [N-terminal(C20 diacid-gGlu), des1, 30S, 31G, 33S]mimylin (peptide)
peptide: {C20 diacid-γGlu}-ASELSTAALGRLSAELHELATLPRTETGSGSS-NH2
SMILES: CC(C)C[C@H](NC(=O)[C@H](C)NC(=O)[C@H](C)NC(=O)[C@@H](NC(=O)[C@H](CO)NC(=O)[C@H](CC(C)C)NC(=O)[C@H](CCC(=O)O)NC(=O)[C@H](CO)NC(=O)[C@H](C)NC(=O)CC[C@H](NC(=O)CCCCCCCCCCCCCCCCCCC(=O)O)C(=O)O)[C@@H](C)O)C(=O)NCC(=O)N[C@@H](CCCNC(=N)N)C(=O)N[C@@H](CC(C)C)C(=O)N[C@@H](CO)C(=O)N[C@@H](C)C(=O)N[C@@H](CCC(=O)O)C(=O)N[C@@H](CC(C)C)C(=O)N[C@@H](Cc1c[nH]cn1)C(=O)N[C@@H](CCC(=O)O)C(=O)N[C@@H](CC(C)C)C(=O)N[C@@H](C)C(=O)N[C@H](C(=O)N[C@@H](CC(C)C)C(=O)N1CCC[C@H]1C(=O)N[C@@H](CCCNC(=N)N)C(=O)N[C@H](C(=O)N[C@@H](CCC(=O)O)C(=O)N[C@H](C(=O)NCC(=O)N[C@@H](CO)C(=O)NCC(=O)N[C@@H](CO)C(=O)N[C@@H](CO)C(N)=O)[C@@H](C)O)[C@@H](C)O)[C@@H](C)O
notes: also called Ex. #63
B2: [des1, 6T, 9V, 14E, 21T, 30T, 31G, 32T]mimylin (peptide)
peptide: ASELTTAVLGRLEAELHELTTLPRTETGTGTP-NH2
notes: backbone without side chain
B3: [des1, 5V, 9V, 30S, 31G]mimylin (peptide)
peptide: ASEVSTAVLGRLSAELHELATLPRTETGSGSP-NH2
notes: backbone without side chain; also called Ex. #86bb; 86bb
B4: [des1, 12H, 30S, 31G]mimylin (peptide)
peptide: ASELSTAALGHLSAELHELATLPRTETGSGSP-NH2
notes: backbone without side chain; also called Ex. #72bb; 72bb
B5: [des1, 6T, 9V, 30T, 31G, 32T]mimylin (peptide)
peptide: ASELTTAVLGRLSAELHELATLPRTETGTGTP-NH2
notes: backbone without side chain; also called Ex. #95bb; 95bb
B6: [N-terminal(C20 diacid-gGlu), des1, 30T, 31G, 32T]mimylin (peptide)
peptide: {C20 diacid-γGlu}-ASELSTAALGRLSAELHELATLPRTETGTGTP-NH2
SMILES: CC(C)C[C@H](NC(=O)[C@H](C)NC(=O)[C@H](C)NC(=O)[C@@H](NC(=O)[C@H](CO)NC(=O)[C@H](CC(C)C)NC(=O)[C@H](CCC(=O)O)NC(=O)[C@H](CO)NC(=O)[C@H](C)NC(=O)CC[C@H](NC(=O)CCCCCCCCCCCCCCCCCCC(=O)O)C(=O)O)[C@@H](C)O)C(=O)NCC(=O)N[C@@H](CCCNC(=N)N)C(=O)N[C@@H](CC(C)C)C(=O)N[C@@H](CO)C(=O)N[C@@H](C)C(=O)N[C@@H](CCC(=O)O)C(=O)N[C@@H](CC(C)C)C(=O)N[C@@H](Cc1c[nH]cn1)C(=O)N[C@@H](CCC(=O)O)C(=O)N[C@@H](CC(C)C)C(=O)N[C@@H](C)C(=O)N[C@H](C(=O)N[C@@H](CC(C)C)C(=O)N1CCC[C@H]1C(=O)N[C@@H](CCCNC(=N)N)C(=O)N[C@H](C(=O)N[C@@H](CCC(=O)O)C(=O)N[C@H](C(=O)NCC(=O)N[C@H](C(=O)NCC(=O)N[C@H](C(=O)N1CCC[C@H]1C(N)=O)[C@@H](C)O)[C@@H](C)O)[C@@H](C)O)[C@@H](C)O)[C@@H](C)O
notes: also called Ex. #74
B7: [N-terminal(C20 diacid-gGlu), -1E, 1A, 23Y, 30S, 31G]mimylin (peptide)
peptide: {C20 diacid-γGlu}-EAASELSTAALGRLSAELHELATYPRTETGSGSP-NH2
SMILES: CC(C)C[C@H](NC(=O)[C@H](C)NC(=O)[C@H](C)NC(=O)[C@@H](NC(=O)[C@H](CO)NC(=O)[C@H](CC(C)C)NC(=O)[C@H](CCC(=O)O)NC(=O)[C@H](CO)NC(=O)[C@H](C)NC(=O)[C@H](C)NC(=O)[C@H](CCC(=O)O)NC(=O)CC[C@H](NC(=O)CCCCCCCCCCCCCCCCCCC(=O)O)C(=O)O)[C@@H](C)O)C(=O)NCC(=O)N[C@@H](CCCNC(=N)N)C(=O)N[C@@H](CC(C)C)C(=O)N[C@@H](CO)C(=O)N[C@@H](C)C(=O)N[C@@H](CCC(=O)O)C(=O)N[C@@H](CC(C)C)C(=O)N[C@@H](Cc1c[nH]cn1)C(=O)N[C@@H](CCC(=O)O)C(=O)N[C@@H](CC(C)C)C(=O)N[C@@H](C)C(=O)N[C@H](C(=O)N[C@@H](Cc1ccc(O)cc1)C(=O)N1CCC[C@H]1C(=O)N[C@@H](CCCNC(=N)N)C(=O)N[C@H](C(=O)N[C@@H](CCC(=O)O)C(=O)N[C@H](C(=O)NCC(=O)N[C@@H](CO)C(=O)NCC(=O)N[C@@H](CO)C(=O)N1CCC[C@H]1C(N)=O)[C@@H](C)O)[C@@H](C)O)[C@@H](C)O
notes: also called Ex. #83
B8: [N-terminal(C18 diacid-gGlu-2xOEG), des1, 4G, 9V, 15Q, 21Q, 23Y, 30S, 31G, 32T, 33Y]mimylin (peptide)
peptide: {C18 diacid-γGlu-AEEA-AEEA}-ASGLSTAVLGRLSQELHELQTYPRTETGSGTY-NH2
SMILES: CC(C)C[C@H](NC(=O)CNC(=O)[C@H](CO)NC(=O)[C@H](C)NC(=O)COCCOCCNC(=O)COCCOCCNC(=O)CC[C@H](NC(=O)CCCCCCCCCCCCCCCCC(=O)O)C(=O)O)C(=O)N[C@@H](CO)C(=O)N[C@H](C(=O)N[C@@H](C)C(=O)N[C@H](C(=O)N[C@@H](CC(C)C)C(=O)NCC(=O)N[C@@H](CCCNC(=N)N)C(=O)N[C@@H](CC(C)C)C(=O)N[C@@H](CO)C(=O)N[C@@H](CCC(N)=O)C(=O)N[C@@H](CCC(=O)O)C(=O)N[C@@H](CC(C)C)C(=O)N[C@@H](Cc1c[nH]cn1)C(=O)N[C@@H](CCC(=O)O)C(=O)N[C@@H](CC(C)C)C(=O)N[C@@H](CCC(N)=O)C(=O)N[C@H](C(=O)N[C@@H](Cc1ccc(O)cc1)C(=O)N1CCC[C@H]1C(=O)N[C@@H](CCCNC(=N)N)C(=O)N[C@H](C(=O)N[C@@H](CCC(=O)O)C(=O)N[C@H](C(=O)NCC(=O)N[C@@H](CO)C(=O)NCC(=O)N[C@H](C(=O)N[C@@H](Cc1ccc(O)cc1)C(N)=O)[C@@H](C)O)[C@@H](C)O)[C@@H](C)O)[C@@H](C)O)C(C)C)[C@@H](C)O
notes: also called Ex. #121
B9: [N-terminal(C20 diacid), des1, 4G, 15Q, 21Q, 23Y, 30S, 31G, 32T, 33Y]mimylin (peptide)
peptide: {C20 diacid}-ASGLSTAALGRLSQELHELQTYPRTETGSGTY-NH2
SMILES: CC(C)C[C@H](NC(=O)CNC(=O)[C@H](CO)NC(=O)[C@H](C)NC(=O)CCCCCCCCCCCCCCCCCCC(=O)O)C(=O)N[C@@H](CO)C(=O)N[C@H](C(=O)N[C@@H](C)C(=O)N[C@@H](C)C(=O)N[C@@H](CC(C)C)C(=O)NCC(=O)N[C@@H](CCCNC(=N)N)C(=O)N[C@@H](CC(C)C)C(=O)N[C@@H](CO)C(=O)N[C@@H](CCC(N)=O)C(=O)N[C@@H](CCC(=O)O)C(=O)N[C@@H](CC(C)C)C(=O)N[C@@H](Cc1c[nH]cn1)C(=O)N[C@@H](CCC(=O)O)C(=O)N[C@@H](CC(C)C)C(=O)N[C@@H](CCC(N)=O)C(=O)N[C@H](C(=O)N[C@@H](Cc1ccc(O)cc1)C(=O)N1CCC[C@H]1C(=O)N[C@@H](CCCNC(=N)N)C(=O)N[C@H](C(=O)N[C@@H](CCC(=O)O)C(=O)N[C@H](C(=O)NCC(=O)N[C@@H](CO)C(=O)NCC(=O)N[C@H](C(=O)N[C@@H](Cc1ccc(O)cc1)C(N)=O)[C@@H](C)O)[C@@H](C)O)[C@@H](C)O)[C@@H](C)O)[C@@H](C)O
B10: [N-terminal(C20 diacid-gGlu), des1, 23Y, 30S, 31G, 34G, C-terminal(-)]mimylin (peptide)
peptide: {C20 diacid-γGlu}-ASELSTAALGRLSAELHELATYPRTETGSGSPG-OH
SMILES: CC(C)C[C@H](NC(=O)[C@H](C)NC(=O)[C@H](C)NC(=O)[C@@H](NC(=O)[C@H](CO)NC(=O)[C@H](CC(C)C)NC(=O)[C@H](CCC(=O)O)NC(=O)[C@H](CO)NC(=O)[C@H](C)NC(=O)CC[C@H](NC(=O)CCCCCCCCCCCCCCCCCCC(=O)O)C(=O)O)[C@@H](C)O)C(=O)NCC(=O)N[C@@H](CCCNC(=N)N)C(=O)N[C@@H](CC(C)C)C(=O)N[C@@H](CO)C(=O)N[C@@H](C)C(=O)N[C@@H](CCC(=O)O)C(=O)N[C@@H](CC(C)C)C(=O)N[C@@H](Cc1c[nH]cn1)C(=O)N[C@@H](CCC(=O)O)C(=O)N[C@@H](CC(C)C)C(=O)N[C@@H](C)C(=O)N[C@H](C(=O)N[C@@H](Cc1ccc(O)cc1)C(=O)N1CCC[C@H]1C(=O)N[C@@H](CCCNC(=N)N)C(=O)N[C@H](C(=O)N[C@@H](CCC(=O)O)C(=O)N[C@H](C(=O)NCC(=O)N[C@@H](CO)C(=O)NCC(=O)N[C@@H](CO)C(=O)N1CCC[C@H]1C(=O)NCC(=O)O)[C@@H](C)O)[C@@H](C)O)[C@@H](C)O
notes: also called Ex. #89
B11: [N-terminal(C20 diacid-gGlu), des1, 23Y, 30S, 31G, 34K, C-terminal(-)]mimylin (peptide)
peptide: {C20 diacid-γGlu}-ASELSTAALGRLSAELHELATYPRTETGSGSPK-OH
SMILES: CC(C)C[C@H](NC(=O)[C@H](C)NC(=O)[C@H](C)NC(=O)[C@@H](NC(=O)[C@H](CO)NC(=O)[C@H](CC(C)C)NC(=O)[C@H](CCC(=O)O)NC(=O)[C@H](CO)NC(=O)[C@H](C)NC(=O)CC[C@H](NC(=O)CCCCCCCCCCCCCCCCCCC(=O)O)C(=O)O)[C@@H](C)O)C(=O)NCC(=O)N[C@@H](CCCNC(=N)N)C(=O)N[C@@H](CC(C)C)C(=O)N[C@@H](CO)C(=O)N[C@@H](C)C(=O)N[C@@H](CCC(=O)O)C(=O)N[C@@H](CC(C)C)C(=O)N[C@@H](Cc1c[nH]cn1)C(=O)N[C@@H](CCC(=O)O)C(=O)N[C@@H](CC(C)C)C(=O)N[C@@H](C)C(=O)N[C@H](C(=O)N[C@@H](Cc1ccc(O)cc1)C(=O)N1CCC[C@H]1C(=O)N[C@@H](CCCNC(=N)N)C(=O)N[C@H](C(=O)N[C@@H](CCC(=O)O)C(=O)N[C@H](C(=O)NCC(=O)N[C@@H](CO)C(=O)NCC(=O)N[C@@H](CO)C(=O)N1CCC[C@H]1C(=O)N[C@@H](CCCCN)C(=O)O)[C@@H](C)O)[C@@H](C)O)[C@@H](C)O
notes: also called Ex. #90

Molecular target: T1, human calcitonin receptor
Assay: whole-cell competition vs 125I-human calcitonin (Assay VIIa)
Summary of the method: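 BHK tk'ts 13 cells stably co-expressing human calcitonin receptor and a CRE-luciferase reporter, seeded overnight at 37 °C. Bound tracer counted by scintillation after cold HBSS washes and NaOH/SDS lysis; IC₅₀ from one-site competition fit taken as receptor affinity.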

Binder | IC50 [nM]
B1 | 2.6
B2 | 62.9
B3 | 0.52
B4 | 4.53
B5 | 15.3
B6 | 1.08
B7 | 1.57
B8 | 0.3
B9 | 0.747
B10 | 3.6
B11 | 6.84
